Target: the molecule itself
Assay: SEC

B1: Recombinant CIDE-N domain of mouse Fsp27 (a.a. 39-119) (domain or fragment, UniProt P56198 39-119, looked up)
chain: TPRARPCRVSTADRKVRKGIMAHSLEDLLNKVQDILKLKDKPFSLVLEEDGTIVETEEYFQALAKDTMFMVLLKGQKWKPP
For B1, the “stoichiometry N” value was 2.

Source: paper PMC3615468 (Nature Communications, 2013)
